These results are taken from patent US20030158387A1 (PHARIS BIOTEC, published 2003).

*: point of attachment. Nonanoyl = CCCCCCCCC(=O)*

T1: chemokine receptor CCR3 (UniProt P51677 1-355, limits assumed)
T1 sequence (looked up): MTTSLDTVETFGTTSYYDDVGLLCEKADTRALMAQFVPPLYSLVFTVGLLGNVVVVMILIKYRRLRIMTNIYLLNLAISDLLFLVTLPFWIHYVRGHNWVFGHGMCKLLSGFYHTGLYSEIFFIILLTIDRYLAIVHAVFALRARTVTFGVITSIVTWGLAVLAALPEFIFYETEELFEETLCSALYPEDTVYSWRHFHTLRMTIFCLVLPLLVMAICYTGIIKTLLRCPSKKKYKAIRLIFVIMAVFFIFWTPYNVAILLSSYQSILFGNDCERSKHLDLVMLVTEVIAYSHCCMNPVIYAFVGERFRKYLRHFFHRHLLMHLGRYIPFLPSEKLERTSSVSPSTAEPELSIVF

B1: processed human chemokine PHC-1 (HCC-1[9-74]) (ligand)
chain: GPYHPSECCFTYTTYKIPRQRIMDYYETNSQCSKPGIVFITKRGHSVCTNPSDKWVQDYIKDMKEN
notes: Purified from human hemofiltrate or made by tryptic digestion of HCC-1 (1-74)
B2: HCC-1[7-74] (ligand)
chain: SRGPYHPSECCFTYTTYKIPRQRIMDYYETNSQCSKPGIVFITKRGHSVCTNPSDKWVQDYIKDMKEN
notes: Synthetic, oxidatively folded
B3: NNY-HCC-1[10-74] (nonanoyl-HCC-1[10-74]) (ligand)
chain: Nonanoyl-PYHPSECCFTYTTYKIPRQRIMDYYETNSQCSKPGIVFITKRGHSVCTNPSDKWVQDYIKDMKEN
modifications: ends and bridges not checked
notes: Chemokine compound analog, synthetic
B4: HCC-1[11-74] (ligand)
chain: YHPSECCFTYTTYKIPRQRIMDYYETNSQCSKPGIVFITKRGHSVCTNPSDKWVQDYIKDMKEN
notes: Synthetic, oxidatively folded
B5: HCC-1[10-74] (ligand)
chain: PYHPSECCFTYTTYKIPRQRIMDYYETNSQCSKPGIVFITKRGHSVCTNPSDKWVQDYIKDMKEN
notes: Synthetic, oxidatively folded
B6: HCC-1, residues 6-74 (ligand)
chain: SSRGPYHPSECCFTYTTYKIPRQRIMDYYETNSQCSKPGIVFITKRGHSVCTNPSDKWVQDYIKDMKEN
notes: also called HCC-1[6-74]
B7: HCC-1[8-74] (ligand)
chain: RGPYHPSECCFTYTTYKIPRQRIMDYYETNSQCSKPGIVFITKRGHSVCTNPSDKWVQDYIKDMKEN
notes: Synthetic, oxidatively folded
B8: RANTES (ligand, UniProt P13501 24-91, looked up)
chain: SPYSSDTTPCCFAYIARPLPRAHIKEYFYTSGKCSNPAVVFVTRKNRQVCANPEKKWVREYINSLEMS
modifications: ends and bridges not checked; also: 125I-labelled where used as tracer, unlabelled in functional assays
B9: HCC-1[12-74] (ligand)
chemokine chain: HPSECCFTYTTYKIPRQRIMDYYETNSQCSKPGIVFITKRGHSVCTNPSDKWVQDYIKDMKEN
notes: Not in the list MOLECULES; also called PHC-2

One assay addresses T1, chemokine receptor CCR3. The experiment in a line: cell-based or functional assay.
As to B1, the “EC50 of receptor activation (aequorin assay)” value was 78 nM.

In another assay the target is T2, chemokine receptor 5 (CCR5) (human, UniProt P51681 1-352). Kind of assay: cell-based or functional assay.
T2 sequence (P51681 whole entry): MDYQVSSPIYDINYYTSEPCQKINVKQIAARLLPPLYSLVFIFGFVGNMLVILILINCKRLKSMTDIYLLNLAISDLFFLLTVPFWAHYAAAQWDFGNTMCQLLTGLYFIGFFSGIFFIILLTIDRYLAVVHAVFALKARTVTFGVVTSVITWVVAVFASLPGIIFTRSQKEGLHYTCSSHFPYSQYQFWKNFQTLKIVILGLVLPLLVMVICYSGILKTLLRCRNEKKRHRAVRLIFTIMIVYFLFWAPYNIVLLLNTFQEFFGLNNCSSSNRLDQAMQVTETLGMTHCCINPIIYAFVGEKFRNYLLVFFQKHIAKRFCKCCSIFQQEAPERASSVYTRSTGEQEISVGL
For B2, the “EC50 (aequorin luminescence, CHO-K1 cells expressing CCR5)” value was 165 nM.
Take B3: the “EC50 (aequorin luminescence, CHO-K1 cells expressing CCR5)” value was 0.453 nM.
For the molecule B4, the “EC50 (aequorin luminescence, CHO-K1 cells expressing CCR5)” value worked out at 224 nM.
Same read-out and setting: the result for B5 reads 3.48 nM; that for B6, 402 nM; that for B1, 6.45 nM.
As for B7, the “EC50 (aequorin luminescence, CHO-K1 cells expressing CCR5)” value amounted to 177 nM.
In the case of B8, the “EC50 (aequorin luminescence, CHO-K1 cells expressing CCR5)” value was 8.48 nM.

Another assay has as its target T2, chemokine receptor 5 (CCR5). The experiment in a line: cell-based or functional assay. This is another data set of the same source.
As for B5, the “EC50 (read off the curve)” value is roughly 6 nM.
B1: the concentration giving a half-maximal response (EC50 (read off the curve)) is roughly 7 nM.
The same measure, in the same setting: the result for B8 reads roughly 10 nM.

A further assay has the same target. The experiment in a line: cell-based or functional assay. This is another data set of the same source.
On to B3, for which the “EC50 (read off the curve)” value was roughly 1 nM.
For the molecule B5, the “EC50 (read off the curve)” value is roughly 6 nM.
With B1, the “EC50 (read off the curve)” value was roughly 7 nM.
Regarding B8, the “EC50 (read off the curve)” value was roughly 10 nM.

Another assay deals with T1, chemokine receptor CCR3. The experiment in a line: competition with 125I-Eotaxin for binding to CCR3. Here is the method:
(§1) For determination of its binding properties, CHO-K1 cells were used which were stably transfected with the chemokine receptors CCR1, CCR3, CCR5. Therefore, crude membrane extracts prepared from the CHO-K1 cell lines expressing the various GPC were used in radioligand binding assays. Competition binding assays were performed in Minisorp tubes (Nunc, Roskilde, Denmark) in a total volume of 100 μl containing 0.11 nM iodinated ligand as tracer, variable concentrations of competitors and defined amount of membranes. Total binding was measured in the absence of competitor and non-specific binding was measured with a 100-fold excess, of unlabelled ligand. Samples were incubated for 90 minutes at 25° C. then filtered through GF/B filters presoaked in 0.3% polyethylenenimine. Filters were counted in a gamma scintillation counter (Packard). Binding parameters were determined with the PRISM software (Graphpad software, San Diego, Calif.) using non-linear regression applied to a one site competition model.
Regarding B1, the affinity, expressed as Ki, was 2.7 nM.

The target of another assay is T2, chemokine receptor 5 (CCR5). Kind of assay: competition with 125I-MIP-1 alpha for binding to CCR5. How it is done: as §1
With B1, the affinity corresponds to a Ki of 0.04 nM.

For a further assay the target is unchanged. Kind of assay: competition radioligand binding, membranes of CHO-K1 cells expressing CCR5, tracer [125I]-MIP-1 beta.
Take B5: the “IC50 (read off the curve)” value was roughly 0.1 nM.
As for B6, the “IC50 (read off the curve)” value was roughly 20 nM.
For the molecule B1, the “IC50 (read off the curve)” value was roughly 0.1 nM.

Another assay shares this target. The assay is described as above. This is another data set of the same source.
Regarding B3, the “IC50 (read off the curve)” value is roughly 0.04 nM.
Take B5: the “IC50 (read off the curve)” value is roughly 0.1 nM.
Regarding B1, the “IC50 (read off the curve)” value was roughly 0.1 nM.

A further assay shares this target. The experiment in a line: competition radioligand binding, membranes of CHO-K1 cells expressing CCR5, tracer [125I]-MIP-1 beta; mean ± SEM.
B2 came in with an IC50 of 7.72 nM.
Turning to B3, the IC50 stood at 0.0343 nM.
Still for that read-out and setting: the result for B4 reads 1.2 nM; that for B5, 0.065 nM.
B9 gave an IC50 of 4.29 nM.
B6 returned an IC50 of 21.6 nM.
In turn, B1 registered an IC50 of 0.0961 nM.
Molecule B7 had an IC50 of 5.9 nM.

For another assay, the target named is T1, chemokine receptor CCR3. Kind of assay: competition with 125I-Eotaxin, membranes of CHO-K1 cells expressing CCR3, filtration, one site competition model; 125I-Eotaxin tracer, CCR3 membranes. How it is done:
as §1
B1 came in with a half-inhibitory concentration (IC50) of 2.7 nM.

The target in another assay is T2, chemokine receptor 5 (CCR5). Kind of assay: competition with 125I-MIP-1 alpha, membranes of CHO-K1 cells expressing CCR5, filtration, one site competition model; 125I-MIP 1-alpha tracer, CCR5 membranes. How it is done: as §1
For B1, the IC50 came out at 0.04 nM.

Broadly, the EC50 (read off the curve) is the concentration needed to bring the measured effect to its halfway point. A word on the Ki: it is the dissociation constant of the complex between target and ligand, obtained from inhibition or displacement. As a reminder, the IC50 is the concentration that inhibits the measured activity by half. Read a high IC50 as lower potency.
